US20080119430
Changes are numbered by the printed parent chain. Names may count otherwise.

B1: BNO69 (endogenous protein in HUVECs, knocked down by adenoviral antisense BNO69R) (protein)
chain: MPEDRNSGGCPAGALASTPFIPKTTYRRIKRCFSFRKGIFGQKLEDTVRYEKRYGNRLAPMLVEQCVDFIRQRGLKEEGLFRLPGQANLVKELQDAFDCGEKPSFDSNTDVHTVASLLKLYLRELPEPVIPYAKYEDFLSCAKLLSKEEEAGVKELAKQVKSLPVVNYNLLKYICRFLDEVQSYSGVNKMSVQNLATVFGPNILRPKVEDPLTIMEGTVVVQQLMSVMISKHDCLFPKDAELQSKPQDGVSNNNEIQKKATMGLLQNKENNNTKDSPSRQCSWDKSESPQRSSMNNGSPTALSGSKTNSPKNSVHKLDVSRSPPLMVKKNPAFNKGSGIVTNGSFSSSNAEGLEKTQTTPNGSLQARRSSSLKVSGTKMGTHSVQNGTVRMGILNSDTLGNPTNVRNMSWLPNGYVTLRDNKQKEQAGELGQHNRLSTYDNVHQQFSMMNLDDKQSIDSATWSTSSCEISLPENSNSCRSSTTTCPEQDFFGGNFEDPVLDGPPQDDLSHPRDYESKSDHRSVGGRSSRATSSSDNSETFVGNSSSNHSALHSLVSSLKQEMTKQKIEYESRIKSLEQRNLTLETEMMSLHDELDQERKKFTMIEIKMRNAERAKEDAEKRNDMLQKEMEQFFSTFGELTVEPRRTERGNTIWIQ
B2: BNO69 mutant (R82A) (protein)
chain: B1 chain with R82A

Biological target: Rho (active Rho-GTP, endogenous in HUVECs)

| Protein | fold increase in Rho activity (active Rho-GTP) in HUVECs after BNO69 knockdown with BNO69R, compared to empty vector | fold increase in Rho activity in HUVECs expressing the R82A mutant, compared to empty vector |
| --- | --- | --- |
| B1 | 3.1±0.5 fold increase in Rho activity with BNO69R | – |
| B2 | – | 2.6±0.7 fold increase (n=4 experiments) in Rho activity |
